In US20120219551A1 (MacroGenics, published 2012):

Experiments:
[1] = target: T1, FcγRIIIA, soluble monomeric protein (extracellular region joined to the linker-AVITAG sequence) (human, UniProt P08637 17-208); experiment: ELISA
T1 construct: extracellular domain; also called FcRIIIA; FcR3A

[2] = target: T1, FcγRIIIA, soluble monomeric protein …; experiment: ELISA; remark: listed apart in the source
[3] = target: T2, CD16A(V158) (human, UniProt P08637 17-208); experiment: relative off-rate wt/variant; method not given (BIAcore elsewhere)
T2 construct: extracellular domain; Construct as told for the BIAcore assays of Section 7.7; also called FcγRIIIA 158V; 3aV158
T2 sequence (P08637 17-208 F176V): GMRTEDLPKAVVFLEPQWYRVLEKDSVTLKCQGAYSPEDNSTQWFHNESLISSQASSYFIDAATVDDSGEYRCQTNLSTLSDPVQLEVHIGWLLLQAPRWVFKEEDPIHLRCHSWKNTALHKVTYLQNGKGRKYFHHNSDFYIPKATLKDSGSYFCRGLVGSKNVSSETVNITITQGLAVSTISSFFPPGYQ

[4] = target: T3, CD16A(F158) (human, UniProt P08637 17-208); experiment: as above
T3 construct: extracellular domain; Construct as told for the BIAcore assays of Section 7.7; also called 3aF158
T3 sequence (P08637 17-208): as the sequence (P08637 17-208 F176V) above, with V160F counted along it

[5] = target: T4, CD32B-G2Ag (human, UniProt P31994 43-217); experiment: as above
T4 construct: extracellular domain; Soluble dimeric protein as told for Section 7.7; also called FcγRIIB-Fc fusion protein; 2bFcagl; not shown: human IgG2 hinge-CH2-CH3 domain
T4 sequence (looked up): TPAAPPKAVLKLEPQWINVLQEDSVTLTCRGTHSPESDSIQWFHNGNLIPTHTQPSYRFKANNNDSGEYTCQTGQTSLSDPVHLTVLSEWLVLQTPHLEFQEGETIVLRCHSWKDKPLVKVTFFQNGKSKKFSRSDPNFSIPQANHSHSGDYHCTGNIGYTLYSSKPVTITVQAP

[6] = target: T5, CD32A-G2Ag (human, UniProt P12318 34-217); experiment: as above
T5 construct: extracellular domain; Soluble dimeric protein as told for Section 7.7 (there 131H); also called FcγRIIA-Fc fusion protein; 2aFcagl; not shown: human IgG2 hinge-CH2-CH3 domain
T5 sequence (looked up): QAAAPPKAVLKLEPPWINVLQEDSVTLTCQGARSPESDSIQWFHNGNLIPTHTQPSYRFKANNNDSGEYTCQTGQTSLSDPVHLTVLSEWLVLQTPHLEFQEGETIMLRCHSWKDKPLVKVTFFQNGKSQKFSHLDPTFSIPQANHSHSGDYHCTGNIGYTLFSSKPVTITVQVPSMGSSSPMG

[7] = target: T6, CD16A (158V) (human, UniProt P08637 17-208); experiment: off-rate ratio vs wild-type Fc (BIAcore per the filing's koff tables)
T6 construct: extracellular domain; Soluble monomeric construct as told for the ch4D5 BIAcore assays of section 7.7; also called FcγRIIIA 158V; FcγRIIIA V158
T6 sequence (P08637 17-208 F176V): as the sequence (P08637 17-208 F176V) above

[8] = target: T7, CD16A (158F) (human, UniProt P08637 17-208); experiment: as above
T7 construct: extracellular domain; Soluble monomeric construct as told for the ch4D5 BIAcore assays of section 7.7
T7 sequence (P08637 17-208): as the sequence (P08637 17-208 F176V) above, with V160F counted along it

[9] = target: T8, CD32B (human, UniProt P31994 43-217); experiment: as above
T8 construct: extracellular domain; Soluble dimeric fusion as told for the ch4D5 BIAcore assays of section 7.7; also called FcγRIIB; FcγRII-B; not shown: hinge-CH2-CH3 domain of human IgG2
T8 sequence (looked up): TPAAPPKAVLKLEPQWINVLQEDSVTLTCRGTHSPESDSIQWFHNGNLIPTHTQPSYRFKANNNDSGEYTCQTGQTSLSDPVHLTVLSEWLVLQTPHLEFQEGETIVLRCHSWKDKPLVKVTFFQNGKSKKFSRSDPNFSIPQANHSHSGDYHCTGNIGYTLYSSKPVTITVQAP

[10] = target: T9, CD32A (131H) (human, UniProt P12318 34-217); experiment: as above
T9 construct: extracellular domain; Soluble dimeric fusion as told for the ch4D5 BIAcore assays of section 7.7; also called FcγRIIA 131H; not shown: hinge-CH2-CH3 domain of human IgG2
T9 sequence (looked up): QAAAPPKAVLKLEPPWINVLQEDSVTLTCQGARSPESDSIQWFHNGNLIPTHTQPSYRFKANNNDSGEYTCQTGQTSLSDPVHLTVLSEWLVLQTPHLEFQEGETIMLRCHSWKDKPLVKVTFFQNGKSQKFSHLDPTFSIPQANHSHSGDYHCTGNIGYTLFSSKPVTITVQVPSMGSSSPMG

[11] = target: T10, CD32A (131R) (human, UniProt P12318 34-217); experiment: as above
T10 construct: extracellular domain; Soluble dimeric fusion as told for FcγRIIA in section 7.7 (there for 131H); also called FcγRIIA 131R; not shown: hinge-CH2-CH3 domain of human IgG2
T10 sequence (looked up): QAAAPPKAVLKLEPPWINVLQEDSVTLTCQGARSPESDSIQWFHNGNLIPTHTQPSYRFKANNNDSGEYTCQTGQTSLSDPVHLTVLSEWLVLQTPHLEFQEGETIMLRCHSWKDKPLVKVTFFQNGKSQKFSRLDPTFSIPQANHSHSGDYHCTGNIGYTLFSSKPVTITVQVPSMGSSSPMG

T1 sequence (P08637 17-208 F176V limits assumed, form in doubt): as the sequence (P08637 17-208 F176V) above

Row | Binder | ELISA binding, fold vs WT [1] [fold] | fold change vs WT [2] [fold] | Koff ratio (wt/mut) [3] [wt/mut] | Koff ratio (wt/mut) [4] [wt/mut] | Koff ratio (wt/mut) [5] [wt/mut] | Koff ratio (wt/mut) [6] [wt/mut] | Wild-Type Koff/Mutant Koff [7] | Wild-Type Koff/Mutant Koff [8] | Wild-Type Koff/Mutant Koff [9] | Wild-Type Koff/Mutant Koff [10] | Wild-Type Koff/Mutant Koff [11]
1 | Fc variant K334E, T359N, T366S (antibody) ASTKGPSVFPLAPSSKSTSGGTAALGCLVKDYFPEPVTVSWNSGALTSGVHTFPAVLQSSGLYSLSSVVTVPSSSLGTQTYICNVNHKPSNTKVDKKVEPKSCDKTHTCPPCPAPELLGGPSVFLFPPKPKDTLMISRTPEVTCVVVDVSHEDPEVKFNWYVDGVEVHNAKTKPREEQYNSTYRVVSVLTVLHQDWLNGKEYKCKVSNKALPAPIEETISKAKGQPREPQVYTLPPSRDELNKNQVSLSCLVKGFYPSDIAVEWESNGQPENNYKTTPPVLDSDGSFFLYSKLTVDKSRWQQGNVFSCSVMHEALHNHYTQKSLSLSPGK | 1.5 | 1.5 |  |  |  |  |  |  |  |  | 
2 | Antibody 2B6 3.5 Fc Variant 49 (F243L, R292P, Y300L, V305I, P396L) (antibody, Fc variant of m46; also called h2B6 3.5 0088; copies: 2 + 2) heavy: QVQLVQSGAEVKKPGASVKVSCKASGYTFTNYWIHWVRQAPGQGLEWIGVIDPSDTYPNYNKKFKGRVTMTVDTSTSTAYMELRSLRSDDTAVYYCARNGDSDYYSGMDYWGQGTTVTVSSASTKGPSVFPLAPSSKSTSGGTAALGCLVKDYFPEPVTVSWNSGALTSGVHTFPAVLQSSGLYSLSSVVTVPSSSLGTQTYICNVNHKPSNTKVDKRVEPKSCDKTHTCPPCPAPELLGGPSVFLLPPKPKDTLMISRTPEVTCVVVDVSHEDPEVKFNWYVDGVEVHNAKTKPPEEQYNSTLRVVSILTVLHQDWLNGKEYKCKVSNKALPAPIEKTISKAKGQPREPQVYTLPPSRDELTKNQVSLTCLVKGFYPSDIAVEWESNGQPENNYKTTPLVLDSDGSFFLYSKLTVDKSRWQQGNVFSCSVMHEALHNHYTQKSLSLSPGK light: EIVLTQSPDFQSVTPKEKVTFTCRTSQSIGTNIHWYQQKPDQSPKLLIKEVSESISGVPSRFSGSGSGTDFTLTINSLEAEDAATYYCQQSNTWPFTFGGGTKVEIKRTVAAPSVFIFPPSDEQLKSGTASVVCLLNNFYPREAKVQWKVDNALQSGNSQESVTEQDSKDSTYSLSSTLTLSKADYEKHKVYACEVTHQGLSSPVTKSFNRGEC |  |  | 10.1 | 8.3 | 3.2 | 1.4 |  |  |  |  | 
3 | ch4D5 Fc variant L235P, F243L, R292P, Y300L, P396L (antibody, One of the series of variants of ch4D5-FcMT2) heavy: QVQLQQSGPELVKPGASLKLSCTASGFNIKDTYIHWVKQRPEQGLEWIGRIYPTNGYTRYDPKFQDKATITADTSSNTAYLQVSRLTSEDTAVYYCSRWGGDGFYAMDYWGQGASVTVSSASTKGPSVFPLAPSSKSTSGGTAALGCLVKDYFPEPVTVSWNSGALTSGVHTFPAVLQSSGLYSLSSVVTVPSSSLGTQTYICNVNHKPSNTKVDKRVEPKSCDKTHTCPPCPAPELPGGPSVFLLPPKPKDTLMISRTPEVTCVVVDVSHEDPEVKFNWYVDGVEVHNAKTKPPEEQYNSTLRVVSVLTVLHQDWLNGKEYKCKVSNKALPAPIEKTISKAKGQPREPQVYTLPPSRDELTKNQVSLTCLVKGFYPSDIAVEWESNGQPENNYKTTPLVLDSDGSFFLYSKLTVDKSRWQQGNVFSCSVMHEALHNHYTQKSLSLSPGK light: DIVMTQSHKFMSTSVGDRVSITCKASQDVNTAVAWYQQKPGHSPKLLIYSASFRYTGVPDRFTGSRSGTDFTFTISSVQAEDLAVYYCQQHYTTPPTFGGGTKVEIKRTVAAPSVFIFPPSDEQLKSGTASVVCLLNNFYPREAKVQWKVDNALQSGNSQESVTEQDSKDSTYSLSSTLTLSKADYEKHKVYACEVTHQGLSSPVTKSFNRGEC |  |  |  |  |  |  |  | 2.5 | 0.2 | 0.7 | 0.2

Other lines, results leading:

Row | ELISA binding, fold vs WT [1] [fold] | fold change vs WT [2] [fold] | Koff ratio (wt/mut) [3] [wt/mut] | Koff ratio (wt/mut) [4] [wt/mut] | Koff ratio (wt/mut) [5] [wt/mut] | Koff ratio (wt/mut) [6] [wt/mut] | Wild-Type Koff/Mutant Koff [7] | Wild-Type Koff/Mutant Koff [8] | Wild-Type Koff/Mutant Koff [9] | Wild-Type Koff/Mutant Koff [10] | Wild-Type Koff/Mutant Koff [11] | Binder
4 |  |  |  |  |  |  | 6.1 | 4.8 | 0.4 | 1.3 | 0.4 | ch4D5-FcMT2 (antibody, human IgG1, kappa, Anti-Her2/neu; also called ch45D4-FcMT2; L235V F243L R292P Y300L P396L) heavy: QVQLQQSGPELVKPGASLKLSCTASGFNIKDTYIHWVKQRPEQGLEWIGRIYPTNGYTRYDPKFQDKATITADTSSNTAYLQVSRLTSEDTAVYYCSRWGGDGFYAMDYWGQGASVTVSSASTKGPSVFPLAPSSKSTSGGTAALGCLVKDYFPEPVTVSWNSGALTSGVHTFPAVLQSSGLYSLSSVVTVPSSSLGTQTYICNVNHKPSNTKVDKRVEPKSCDKTHTCPPCPAPELVGGPSVFLLPPKPKDTLMISRTPEVTCVVVDVSHEDPEVKFNWYVDGVEVHNAKTKPPEEQYNSTLRVVSVLTVLHQDWLNGKEYKCKVSNKALPAPIEKTISKAKGQPREPQVYTLPPSRDELTKNQVSLTCLVKGFYPSDIAVEWESNGQPENNYKTTPLVLDSDGSFFLYSKLTVDKSRWQQGNVFSCSVMHEALHNHYTQKSLSLSPGK light: DIVMTQSHKFMSTSVGDRVSITCKASQDVNTAVAWYQQKPGHSPKLLIYSASFRYTGVPDRFTGSRSGTDFTFTISSVQAEDLAVYYCQQHYTTPPTFGGGTKVEIKRTVAAPSVFIFPPSDEQLKSGTASVVCLLNNFYPREAKVQWKVDNALQSGNSQESVTEQDSKDSTYSLSSTLTLSKADYEKHKVYACEVTHQGLSSPVTKSFNRGEC
5 |  |  | 5.3 | 4.5 | 0.5 | 1.3 |  |  |  |  |  | ch4D5 Fc Variants 19 and 20 (L235V, F243L, R292P, Y300L, P396L) (antibody, copies: 2 + 2) heavy: QVQLQQSGPELVKPGASLKLSCTASGFNIKDTYIHWVKQRPEQGLEWIGRIYPTNGYTRYDPKFQDKATITADTSSNTAYLQVSRLTSEDTAVYYCSRWGGDGFYAMDYWGQGASVTVSSASTKGPSVFPLAPSSKSTSGGTAALGCLVKDYFPEPVTVSWNSGALTSGVHTFPAVLQSSGLYSLSSVVTVPSSSLGTQTYICNVNHKPSNTKVDKRVEPKSCDKTHTCPPCPAPELVGGPSVFLLPPKPKDTLMISRTPEVTCVVVDVSHEDPEVKFNWYVDGVEVHNAKTKPPEEQYNSTLRVVSVLTVLHQDWLNGKEYKCKVSNKALPAPIEKTISKAKGQPREPQVYTLPPSRDELTKNQVSLTCLVKGFYPSDIAVEWESNGQPENNYKTTPLVLDSDGSFFLYSKLTVDKSRWQQGNVFSCSVMHEALHNHYTQKSLSLSPGK light: DIVMTQSHKFMSTSVGDRVSITCKASQDVNTAVAWYQQKPGHSPKLLIYSASFRYTGVPDRFTGSRSGTDFTFTISSVQAEDLAVYYCQQHYTTPPTFGGGTKVEIKRTVAAPSVFIFPPSDEQLKSGTASVVCLLNNFYPREAKVQWKVDNALQSGNSQESVTEQDSKDSTYSLSSTLTLSKADYEKHKVYACEVTHQGLSSPVTKSFNRGEC
6 |  |  |  |  |  |  | 4.2 | 2.8 | 0.3 | 0.9 | 0.3 | ch4D5 Fc variant L235T, F243L, R292P, Y300L, P396L (antibody, One of the series of variants of ch4D5-FcMT2) heavy: QVQLQQSGPELVKPGASLKLSCTASGFNIKDTYIHWVKQRPEQGLEWIGRIYPTNGYTRYDPKFQDKATITADTSSNTAYLQVSRLTSEDTAVYYCSRWGGDGFYAMDYWGQGASVTVSSASTKGPSVFPLAPSSKSTSGGTAALGCLVKDYFPEPVTVSWNSGALTSGVHTFPAVLQSSGLYSLSSVVTVPSSSLGTQTYICNVNHKPSNTKVDKRVEPKSCDKTHTCPPCPAPELTGGPSVFLLPPKPKDTLMISRTPEVTCVVVDVSHEDPEVKFNWYVDGVEVHNAKTKPPEEQYNSTLRVVSVLTVLHQDWLNGKEYKCKVSNKALPAPIEKTISKAKGQPREPQVYTLPPSRDELTKNQVSLTCLVKGFYPSDIAVEWESNGQPENNYKTTPLVLDSDGSFFLYSKLTVDKSRWQQGNVFSCSVMHEALHNHYTQKSLSLSPGK light: DIVMTQSHKFMSTSVGDRVSITCKASQDVNTAVAWYQQKPGHSPKLLIYSASFRYTGVPDRFTGSRSGTDFTFTISSVQAEDLAVYYCQQHYTTPPTFGGGTKVEIKRTVAAPSVFIFPPSDEQLKSGTASVVCLLNNFYPREAKVQWKVDNALQSGNSQESVTEQDSKDSTYSLSSTLTLSKADYEKHKVYACEVTHQGLSSPVTKSFNRGEC
